Test results as given in patent US20250222125A1, “Anti-FGFR2b Antibodies, Conjugates and Methods of Use” (BeiGene, Ltd., priority 2024, published 2025).
Like-named read-outs stand apart in the source and are kept apart here.

B1: BGAm1371 (antibody, V domains shown)
VH: QVQLKQSGAELVKPGASVKLSCTASGFNIKDTYIHWVKQRPEQGLEWIGRIDPANGNTMFASEFQGKATITAYTSSNTAYMQLSSLTSGDTAVYYCARSKIHYDYDEGFAYWGQGTLVTVSS
VL: NIVLTQSPPSLAVSLGQRATVSCRASESVDDYGYSFLHWYQQKPGQPPKLLIYRASNLESGIPARFSGSGSRTDFTLTINPVETDDVATYYCQQSNQNPRTFGGGTKLEIK
B2: BGAh9239 (antibody, human IgG1, kappa, V domains shown)
VH: QVQLVQSGAEVKKPGSSVKVSCKASGYTFSIYWLNWVRQAPGQGLEWMGQIYPENADTNYSGKFKGRVTITADKSTSTAYMELSSLRSEDTAVYFCARGGFDYWGQGTLVTVSS
VL: DIQMTQSPSSLSASVGDRVTITCRASENIYSNLAWYQQKPGKAPKLLIYTATNLAEGVPSRFSGSGSGTDFTLTISSLQPEDFATYYCQHFYGILYTFGQGTRLEIKR
B3: BGAm1823 (antibody, V domains shown)
VH: EVQLQQSGAELVKPGASVKISCKASGYAFSIYWMNWVKQRPGKGLEWIGQIYPENGDTNYNGKFKGKATLTADKSSSTAYMHLSSLTSEDSAVYFCARGGFDYWGQGTTLTVSS
VL: NIVMTQSPASLSASVGETVTITCRASENIYSNLAWYQQKQGKSPQLLVYTATNLADGVPSRFSGSGSGTQFSLKINSLQPEDFGSYYCQHFYGILYTFGSGTRLEIK
B4: BGAh9179 (antibody, human IgG1, kappa, V domains shown)
VH: QVQLVQSGAEVKKPGASVKVSCKASGYTITDTYIHWVRQAPGQGLEWMGRIDPAEGNTMFASEFQGRVTMTADTSTSTVYMELSSLRSEDTAVYYCARSKIHYDYDEGFAYWGQGTLVTVSS
VL: DIVLTQSPDSLAVSLGERATINCRASESVDDYGYSFLHWYQQKPGQPPKLLIYRASNLESGVPDRFSGSGSGTDFTLTISSLQAEDVAVYYCQQSNQNPRTFGGGTKVEIKR
B5: BGA1421 (antibody, human IgG1, kappa, V domains shown)
VH: QVQLVQSGAEVKKPGSSVKVSCKASGYIFTTYNVHWVRQAPGQGLEWIGSIYPDNGDTSYNQNFKGRATITADKSTSTAYMELSSLRSEDTAVYYCARGDFAYWGQGTLVTVSS
VL: DIQMTQSPSSLSASVGDRVTITCKASQGVSNDVAWYQQKPGKAPKLLIYSASYRYTGVPSRFSGSGSGTDFTFTISSLQPEDIATYYCQQHSTTPYTFGQGTKLEIKR

Legend:
[1] = target: human FGFR2b on cells (human) (UniProt P21802); assay: flow cytometry, Expi293 cells overexpressing human FGFR2b
Chain of human FGFR2b on cells (human) (P21802 other isoform, or with tags, fused parts or gaps limits assumed): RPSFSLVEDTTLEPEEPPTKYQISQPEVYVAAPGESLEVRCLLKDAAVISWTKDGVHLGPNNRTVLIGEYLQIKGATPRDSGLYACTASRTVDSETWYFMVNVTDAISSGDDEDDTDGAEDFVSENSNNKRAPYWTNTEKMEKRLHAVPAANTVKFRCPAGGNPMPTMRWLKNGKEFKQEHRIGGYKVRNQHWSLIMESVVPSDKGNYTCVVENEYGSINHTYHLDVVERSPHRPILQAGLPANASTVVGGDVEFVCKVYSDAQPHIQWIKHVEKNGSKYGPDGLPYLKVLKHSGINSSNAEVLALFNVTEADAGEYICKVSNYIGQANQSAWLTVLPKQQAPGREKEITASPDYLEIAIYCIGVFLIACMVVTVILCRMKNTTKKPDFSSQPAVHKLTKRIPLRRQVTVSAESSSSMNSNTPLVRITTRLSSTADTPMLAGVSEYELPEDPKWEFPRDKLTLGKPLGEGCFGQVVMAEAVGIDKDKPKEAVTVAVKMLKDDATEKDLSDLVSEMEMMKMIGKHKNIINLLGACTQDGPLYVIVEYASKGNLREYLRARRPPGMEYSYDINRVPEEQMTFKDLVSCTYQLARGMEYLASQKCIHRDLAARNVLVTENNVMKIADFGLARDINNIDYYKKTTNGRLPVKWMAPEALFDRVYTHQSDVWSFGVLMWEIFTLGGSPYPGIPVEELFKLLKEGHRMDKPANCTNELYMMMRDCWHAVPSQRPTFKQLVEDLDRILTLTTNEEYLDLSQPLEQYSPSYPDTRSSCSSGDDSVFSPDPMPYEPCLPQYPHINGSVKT

[2] = target: mouse FGFR2b on cells (mouse) (UniProt P21803); assay: flow cytometry, murine FGFR2b OE cells
[3] = target: human FGFR2b protein (recombinant, coated on ELISA plates) (human) (UniProt P21802); assay: ELISA, plate-coated human FGFR2b
Chain of human FGFR2b protein (recombinant, coated on ELISA plates) (human) (P21802 other isoform, or with tags, fused parts or gaps limits assumed): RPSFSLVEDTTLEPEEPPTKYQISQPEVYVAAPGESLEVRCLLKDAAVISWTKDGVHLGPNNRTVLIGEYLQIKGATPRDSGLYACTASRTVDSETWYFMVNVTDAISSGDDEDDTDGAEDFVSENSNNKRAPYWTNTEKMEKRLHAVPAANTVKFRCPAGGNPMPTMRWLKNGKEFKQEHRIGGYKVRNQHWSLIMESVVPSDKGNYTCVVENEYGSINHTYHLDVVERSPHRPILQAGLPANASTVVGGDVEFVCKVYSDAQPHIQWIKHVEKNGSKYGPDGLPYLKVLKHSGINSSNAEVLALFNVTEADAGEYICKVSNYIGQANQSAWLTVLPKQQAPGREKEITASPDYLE

[4] = target: human FGFR2b protein (recombinant, coated on ELISA plates) (human) (UniProt P21802); assay: ELISA, plate-coated human FGFR2b; remark: listed apart in the source
[5] = target: human FGFR2c on cells (human) (UniProt P21802); assay: flow cytometry, human FGFR2c OE cells
Chain of human FGFR2c on cells (human) (P21802 22-821): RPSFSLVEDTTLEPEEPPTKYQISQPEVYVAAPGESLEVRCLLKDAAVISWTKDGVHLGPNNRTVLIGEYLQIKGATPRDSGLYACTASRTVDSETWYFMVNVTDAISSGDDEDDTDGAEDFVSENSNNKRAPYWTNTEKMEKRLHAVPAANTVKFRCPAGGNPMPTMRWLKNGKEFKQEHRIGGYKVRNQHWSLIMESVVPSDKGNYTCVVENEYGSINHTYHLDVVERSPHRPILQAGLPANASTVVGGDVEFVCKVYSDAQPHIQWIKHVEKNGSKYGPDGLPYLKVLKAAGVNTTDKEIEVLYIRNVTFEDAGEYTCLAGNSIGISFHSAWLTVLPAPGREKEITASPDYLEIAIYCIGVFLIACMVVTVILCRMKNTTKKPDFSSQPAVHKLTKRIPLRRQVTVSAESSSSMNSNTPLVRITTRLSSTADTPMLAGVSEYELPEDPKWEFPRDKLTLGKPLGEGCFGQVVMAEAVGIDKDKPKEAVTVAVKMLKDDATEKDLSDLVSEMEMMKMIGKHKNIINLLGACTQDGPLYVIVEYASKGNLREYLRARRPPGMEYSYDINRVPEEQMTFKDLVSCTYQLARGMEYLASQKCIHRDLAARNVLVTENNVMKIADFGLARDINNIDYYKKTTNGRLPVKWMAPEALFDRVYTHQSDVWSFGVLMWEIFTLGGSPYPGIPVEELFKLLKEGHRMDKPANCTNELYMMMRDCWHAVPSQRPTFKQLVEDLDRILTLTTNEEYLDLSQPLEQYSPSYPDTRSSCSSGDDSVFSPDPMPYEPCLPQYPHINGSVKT

[6] = target: mouse FGFR2b on cells (mouse) (UniProt P21803); assay: flow cytometry, Expi293 cells overexpressing mouse FGFR2b
[7] = target: soluble human FGFR2b protein (his tag, in-house generated) (human) (UniProt P21802); assay: SPR, antibody captured by anti-human Fc, human FGFR2b
[8] = target: human FGFR2b on cells (human) (UniProt P21802); assay: flow cytometry, human FGFR2b OE cells
[9] = target: human FGFR2c on cells (human) (UniProt P21802); assay: flow cytometry, Expi293 cells overexpressing human FGFR2c
[10] = target: human FGFR2c protein (recombinant, coated on ELISA plates) (human) (UniProt P21802); assay: ELISA, plate-coated human FGFR2c
[11] = target: soluble human FGFR2b protein (his tag, in-house generated) (human) (UniProt P21802); assay: SPR (Biacore 8K), antibody captured by anti-human Fc, soluble human FGFR2b-his as analyte

Binder	EC50 [1] [nM]	Emax (MFI) [1] [MFI]	EC50 [2] [nM]	EC50 [3] [nM]	Emax (OD450) [3] [OD450]	EC50 [4] [nM]	Emax (A450) [4] [A450]	Emax (MFI) [5] [MFI]	EC50 [6] [nM]	Emax (MFI) [6] [MFI]	Kd [7] [nM]	koff [7] [s⁻¹]	kon [7] [M⁻¹ s⁻¹]	EC50 [8] [nM]	Emax (MFI) [9] [MFI]	Emax (A450) [10] [A450]	Emax (OD450) [10] [OD450]	Kd [11] [nM]	koff [11] [s⁻¹]	kon [11] [M⁻¹ s⁻¹]
B1	1.5	3.05e+06	1.78	0.19	3.35	0.0309	3.01	33	3.5	4.98e+06	16.3	0.00119	72900	1.25	23100	0.204	0.07			
B2	2.4	3.08e+06	1.59	0.26	3.37	0.031	2.94	36	2.67	5.1e+06	37.3	0.003	80500	1.84	23800	0.13	0.07	24.7	0.00189	76600
B3	2.12	3.09e+06				0.0442	2.95		3.37	5.19e+06	24.2	0.00185	76300		22600	0.116				
B4	3.29	2.98e+06				0.0518	2.99		4.25	5.15e+06	21.8	0.00178	81600		21700	0.086		13.9	0.00112	80600
B5			0.81	0.61	2.62			40						0.48			0.09	22.2	0.00232	104000
